This note sets out measurements from US20150023971A1.

Test [1] concerns the target T1, recombinant his-S-tagged pro-domain of human BDNF (residues Ala1-Arg110), from pET-30 Xa/LIC, E. coli (human) (UniProt P23560).
T1 sequence: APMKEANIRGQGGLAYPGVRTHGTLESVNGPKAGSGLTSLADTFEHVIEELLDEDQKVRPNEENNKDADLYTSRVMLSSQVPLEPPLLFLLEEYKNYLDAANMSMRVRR
The test is described as follows: SPR competition, 390 nM Sortilin with 300 uM peptide over immobilised pro-dom-BDNF.

The target of test [2] is purified human Sortilin extracellular domain (produced in stably transfected CHO cells) (human) (UniProt Q99523). The test is described as follows: SPR (Biacore), immobilised Sortilin extracellular domain (94 fmol/mm2); GST-pro-domain of proBDNF, upper panel of FIG. 7.
purified human Sortilin extracellular domain (produced in stably transfected CHO cells) (human), sequence (Q99523 78-755 V650M limits assumed): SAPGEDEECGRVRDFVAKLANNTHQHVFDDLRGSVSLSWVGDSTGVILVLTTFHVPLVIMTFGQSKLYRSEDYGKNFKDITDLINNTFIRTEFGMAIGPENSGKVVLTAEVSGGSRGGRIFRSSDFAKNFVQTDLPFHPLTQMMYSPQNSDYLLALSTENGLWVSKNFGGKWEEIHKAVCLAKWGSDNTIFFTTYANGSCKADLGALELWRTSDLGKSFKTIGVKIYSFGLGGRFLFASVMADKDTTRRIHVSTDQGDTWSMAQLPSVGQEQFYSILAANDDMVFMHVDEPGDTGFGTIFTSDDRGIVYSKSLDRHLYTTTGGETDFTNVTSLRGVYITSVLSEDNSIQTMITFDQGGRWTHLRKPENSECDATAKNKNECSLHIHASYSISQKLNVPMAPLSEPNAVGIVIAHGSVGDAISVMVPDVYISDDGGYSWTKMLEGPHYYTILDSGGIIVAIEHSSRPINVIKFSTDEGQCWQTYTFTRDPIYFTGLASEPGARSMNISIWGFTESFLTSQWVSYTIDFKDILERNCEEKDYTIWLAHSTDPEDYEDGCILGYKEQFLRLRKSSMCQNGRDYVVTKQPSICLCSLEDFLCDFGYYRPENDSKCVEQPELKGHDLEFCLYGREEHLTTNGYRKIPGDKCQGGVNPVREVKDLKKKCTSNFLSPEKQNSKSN

For the molecule RSSDFAKNFVQTDLPF [sortilin peptide … (synthetic, soluble)], in test [1], the percent inhibition of Sortilin binding to pro-dom-BDNF is 66%.

B1: pro-domain of human BDNF fused to GST (glutathione S-transferase), produced in E. coli (protein, not shown: a dimerising Fc or GST)
chain: APMKEANIRGQGGLAYPGVRTHGTLESVNGPKAGSGLTSLADTFEHVIEELLDEDQKVRPNEENNKDADLYTSRVMLSSQVPLEPPLLFLLEEYKNYLDAANMSMRVRR
In test [2], B1 registered a Kd of 58 nM.
